According to PMC12852852:

Target: hClpX E285A (human) (UniProt O76031)

stoichiometry N: 6
Substance: hClpX E285A (from UniProt O76031 57-633) (enzyme)
